Molecular target: human CD40L protein translated from transfected CD40L mRNA (pCR2.1 CD40L WT, >100 nucleotide polyA tail) (human) (UniProt P29965)
Assay: cell-based or functional assay

Chain of UniProt P29965 (P29965 whole entry): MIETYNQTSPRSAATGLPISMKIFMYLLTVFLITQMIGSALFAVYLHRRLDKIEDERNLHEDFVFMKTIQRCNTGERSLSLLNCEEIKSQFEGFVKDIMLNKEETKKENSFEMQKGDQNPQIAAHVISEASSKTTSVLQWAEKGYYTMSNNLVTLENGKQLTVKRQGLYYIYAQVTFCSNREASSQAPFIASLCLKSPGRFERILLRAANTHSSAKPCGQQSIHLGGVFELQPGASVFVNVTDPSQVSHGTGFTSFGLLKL

- IL-12p70 (pg/ml), 'Cocktail' matured and reactivated DCs co-cultured with CD40L mRNA-transfected HeLa cells plus IFN-gamma plus 24-31: 2.5 pg/mL
- IL-12p70 release by CD40L mRNA-transfected DCs cultured with IFN-gamma and 10 or 50 ug/ml blocking anti-CD40L antibody: 50%
Substance: blocking CD40L monoclonal antibody 24-31 (eBioscience)

From US20070082400A1
